From the RNAGym collection of RNA variant scans (doi:10.1093/nar/gkz1192) come the findings set out here.

B1: CPEB3 Ribozyme (parent)
chain: UAACAGGGGGCCACAGCAGAAGCGUUCACGUCGCAGCCCCUGUCAGAUUCUGGUGAAUCUGCGAAUUCUGCUGUAUAUCUC

The variants in the series derive from B1. The series can be described thus: self-cleavage, relative activity (ratio to wild type); higher = more cleavage; in vitro, sequencing. The essentials: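 Barcoded CPEB3 ribozyme mutants, produced by rounds of error-prone PCR, self-cleaved while being transcribed with T7 RNA polymerase for 5 hours at 37°C and during a subsequent 15 min DNase I step before EDTA was added. Sequencing of template-switched cDNA on Illumina gave cleaved and total reads, and DNA sequencing assigned barcodes to variants. Each variant's relative activity is its cleaved/total read fraction divided by the unmutated ribozyme's fraction, averaged across three batches. A variant needed a minimum of 5 reads.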
UAACAGGGGGCCACAGCAGAAGCGUUCACGUCGCAGCCCCUGUCAGAUACUGGUGAAUCUGCGAACUCUGCUGUAUAUCUC [U49A U66C]: the self-cleavage stood at 0.38.
For the variant UAACAGGGGGCCACAGCAGAAGCGUUCACGUCGCAGCCCCUGUCAGAUACUGGUGAAUCUGCGAAUCCUGCUGUAUAUCUC [U49A U67C], the self-cleavage was determined as 0.3.
The same measure for UAACAGGGGGCCACAGCAGAAGCGUUCACGUCGCAGCCCCUGUCAGAUACUGGUGAAUCUGCGAAUACUGCUGUAUAUCUC [U49A U67A]: 0.57; for UAACAGGGGGCCACAGCAGAAGCGUUCACGUCGCAGCCCCUGUCAGAUACUGGUAAAUCUGCGAAUUCUGCUGUAUAUCUC [U49A G55A]: 0.78; for UAACAGGGGGCCACAGCAGAAGCGUUCACGUCGCAGCCCCUGUCAGAUACUGGUCAAUCUGCGAAUUCUGCUGUAUAUCUC [U49A G55C]: 0.62.
The same measure for UAACAGGGGGCCACAGCAGAAGCGUUCACGUCGCAGCCCCUGUCAGAUCUUGGUGAAUCUGCGAAUUCUGCUGUAUAUCUC [U49C C50U]: 0.87; for UAACAGGGGGCCACAGCAGAAGCGUUCACGUCGCAGCCCCUGUCAGAUCGUGGUGAAUCUGCGAAUUCUGCUGUAUAUCUC [U49C C50G]: 0.82; for UAACAGGGGGCCACAGCAGAAGCGUUCACGUCGCAGCCCCUGUCAGAUCAUGGUGAAUCUGCGAAUUCUGCUGUAUAUCUC [U49C C50A]: 0.78.
The same measure for UAACAGGGGGCCACAGCAGAAGCGUUCACGUCGCAGCCCCUGUCAGAUACUGGUGAAUCUGCGAAUUCUGCUGUAUGUCUC [U49A A77G]: 0.46; for UAACAGGGGGCCACAGCAGAAGCGUUCACGUCGCAGCCCCUGUCAGAUACUGGUGAAUCUGCGAAUUCUGCUGUAUUUCUC [U49A A77U]: 0.9.
Take UAACAGGGGGCCACAGCAGAAGCGUUCACGUCGCAGCCCCUGUCAGAUACUGGUGAAUCUGCGAAUUCUGCUGUACAUCUC [U49A U76C]: the self-cleavage amounted to 0.69.
Regarding UAACAGGGGGCCACAGCAGAAGCGUUCACGUCGCAGCCCCUGUCAGAUACUGGUGAAUCUGCGAAUUCUGCUAUAUAUCUC [U49A G73A], the self-cleavage worked out at 1.28.
Turning to UAACAGGGGGCCACAGCAGAAGCGUUCACGUCGCAGCCCCUGUCAGAUACCGGUGAAUCUGCGAAUUCUGCUGUAUAUCUC [U49A U51C], the self-cleavage is 0.66.
The same measure for UAACAGGGGGCCACAGCAGAAGCGUUCACGUCGCAGCCCCUGUCAGAUACAGGUGAAUCUGCGAAUUCUGCUGUAUAUCUC [U49A U51A]: 0.45; for UAACAGGGGGCCACAGCAGAAGCGUUCACGUCGCAGCCCCUGUCAGAUACUGGUGAAACUGCGAAUUCUGCUGUAUAUCUC [U49A U58A]: 0.21; for UAACAGGGGGCCACAGCAGAAGCGUUCACGUCGCAGCCCCUGUCAGAUACUGGUGAACCUGCGAAUUCUGCUGUAUAUCUC [U49A U58C]: 0.33.
The same measure for UAACAGGGGGCCACAGCAGAAGCGUUCACGUCGCAGCCCCUGUCAGAUACUAGUGAAUCUGCGAAUUCUGCUGUAUAUCUC [U49A G52A]: 0.84.
Under UAACAGGGGGCCACAGCAGAAGCGUUCACGUCGCAGCCCCUGUCAGAUCCUGGUGAAUCUGCGAAUUCUGCUGUAUAUCUC [U49C] stands 0.43.
Take UAACAGGGGGCCACAGCAGAAGCGUUCACGUCGCAGCCCCUGUCAGAUACUGGUGAAUAUGCGAAUUCUGCUGUAUAUCUC [U49A C59A]: the self-cleavage was 0.34.
Consider UAACAGGGGGCCACAGCAGAAGCGUUCACGUCGCAGCCCCUGUCAGAUACUGGUGAAUUUGCGAAUUCUGCUGUAUAUCUC [U49A C59U], for which the self-cleavage is 0.19.
Under UAACAGGGGGCCACAGCAGAAGCGUUCACGUCGCAGCCCCUGUCAGAUACUGGUGAAUCUGCAAAUUCUGCUGUAUAUCUC [U49A G63A] stands 0.69; under UAACAGGGGGCCACAGCAGAAGCGUUCACGUCGCAGCCCCUGUCAGAUACUGGUGAAUCUGCUAAUUCUGCUGUAUAUCUC [U49A G63U], 0.63.
Consider UAACAGGGGGCCACAGCAGAAGCGUUCACGUCGCAGCCCCUGUCAGAUACUGGUGAAUCUGCCAAUUCUGCUGUAUAUCUC [U49A G63C], for which the self-cleavage is 0.88.
Under UAACAGGGGGCCACAGCAGAAGCGUUCACGUCGCAGCCCCUGUCAGAUACUGGUGAAUCUGCGAAUUCUGCUGAAUAUCUC [U49A U74A] stands 1.34.
Regarding UAACAGGGGGCCACAGCAGAAGCGUUCACGUCGCAGCCCCUGUCAGAUACUGGUGAAUCUGCGAAUUCUGCUGCAUAUCUC [U49A U74C], the self-cleavage amounted to 0.95.
Turning to UAACAGGGGGCCACAGCAGAAGCGUUCACGUCGCAGCCCCUGUCAGAUACUGGUGAAUCUGCGAAUUCUGCUGUAUAUCCC [U49A U80C], the self-cleavage is 0.69.
The same measure for UAACAGGGGGCCACAGCAGAAGCGUUCACGUCGCAGCCCCUGUCAGAUACUGGUGAAUCUGCGAAUUCUGCUGUAUAUCAC [U49A U80A]: 0.88.
Consider UAACAGGGGGCCACAGCAGAAGCGUUCACGUCGCAGCCCCUGUCAGAUACUGGUGAAUCUGCGAAUUCUGCUGUAUAUCGC [U49A U80G], for which the self-cleavage was 0.88.
Under UAACAGGGGGCCACAGCAGAAGCGUUCACGUCGCAGCCCCUGUCAGAUAAUGGUGAAUCUGCGAAUUCUGCUGUAUAUCUC [U49A C50A] stands 0.5; under UAACAGGGGGCCACAGCAGAAGCGUUCACGUCGCAGCCCCUGUCAGAUCCUGGUGAAUCUGCGGAUUCUGCUGUAUAUCUC [U49C A64G], 0.27; under UAACAGGGGGCCACAGCAGAAGCGUUCACGUCGCAGCCCCUGUCAGAUCCUGGUGAAUCUGCGCAUUCUGCUGUAUAUCUC [U49C A64C], 0.26.
On to UAACAGGGGGCCACAGCAGAAGCGUUCACGUCGCAGCCCCUGUCAGAUCCUGGUGAAUCUGCGUAUUCUGCUGUAUAUCUC [U49C A64U], for which the self-cleavage was 0.24.
On to UAACAGGGGGCCACAGCAGAAGCGUUCACGUCGCAGCCCCUGUCAGAUACUGGUGAAUCUGUGAAUUCUGCUGUAUAUCUC [U49A C62U], for which the self-cleavage turned out to be 0.44.
Under UAACAGGGGGCCACAGCAGAAGCGUUCACGUCGCAGCCCCUGUCAGAUACUGGUGAAUCUGAGAAUUCUGCUGUAUAUCUC [U49A C62A] stands 0.26.
